Data reported in article PMC8457056, “Remodeling of the Fibrillation Pathway of α‐Synuclein by Interaction with Antimicrobial Peptide LL‐III” (Chemistry (Weinheim an Der Bergstrasse, Germany), 2021).
Where no end group is shown, it is not given here. carboxyfluorescein = carboxyfluorescein at the N-terminus

Target: α‐Synuclein (human, UniProt P37840 1-140)
Assay: fluorescence polarisation
Settings: both partners purified

Binder | Ka
H-VNWKKILGKIIKVVK-NH2 [antimicrobial peptide LL‐III] | 37000 M⁻¹
carboxyfluorescein-VNWKKILGKIIKVVK [carboxyfluorescein‐labeled LL‐III] | 19000 M⁻¹
